Measured values as given in PMC3876986, “The Velvet Family of Fungal Regulators Contains a DNA-Binding Domain Structurally Similar to NF-κB”.
Values belong to the molecule of their own block, whether it stands above or below them.

Experiments:
[1] = target: VosA_(1–190), minimal velvet domain of VosA encompassing residues 1–190 (A. nidulans); assay: SEC; Superdex 200 (16/60) gel filtration column; elution volumes compared
[2] = target: VosA_(1–190), minimal velvet domain of VosA encompassing residues 1–190 (A. nidulans); assay: SEC-MALS; size exclusion chromatography and subsequent mass determination using MALS
[3] = target: VosA_(1–190) dead, quadruple mutant of VosA with the mutations K37A, K39A, R41A, and K42A (A. nidulans); assay: as above
[4] = target: T1, VosA full-length (Aspergillus nidulans, UniProt Q5BBX1 1-430); assay: EMSA; EMSA: 10 mM HEPES/NaOH pH 7.4, 150 mM NaCl, ~53 pmol DNA in 10 ul, RT 15 min; DNA:protein molar ratios 1:0.3 to 1:9; 6% PAGE, 0.5% TBE, ethidium bromide; conditions: protein: recombinant; tags: GST (N-terminal, pGEX-5X-1); chain copies: 2; blunt
T1 sequence: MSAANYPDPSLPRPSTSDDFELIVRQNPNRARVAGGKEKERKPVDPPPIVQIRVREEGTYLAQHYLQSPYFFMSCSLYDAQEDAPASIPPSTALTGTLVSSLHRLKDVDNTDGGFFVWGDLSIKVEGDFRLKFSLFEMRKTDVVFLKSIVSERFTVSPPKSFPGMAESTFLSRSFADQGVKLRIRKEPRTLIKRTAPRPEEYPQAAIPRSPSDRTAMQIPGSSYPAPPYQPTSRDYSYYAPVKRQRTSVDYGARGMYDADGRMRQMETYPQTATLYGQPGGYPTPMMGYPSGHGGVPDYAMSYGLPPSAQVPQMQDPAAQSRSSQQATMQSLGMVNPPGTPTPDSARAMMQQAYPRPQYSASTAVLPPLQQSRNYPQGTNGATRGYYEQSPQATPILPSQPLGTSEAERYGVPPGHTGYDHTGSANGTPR

[5] = target: T2, VosA_N (Aspergillus nidulans, UniProt Q5BBX1 1-216); assay: as above; conditions: protein: recombinant; tags: GST (N-terminal, pGEX-4T-3); chain copies: 2; blunt
T2 sequence: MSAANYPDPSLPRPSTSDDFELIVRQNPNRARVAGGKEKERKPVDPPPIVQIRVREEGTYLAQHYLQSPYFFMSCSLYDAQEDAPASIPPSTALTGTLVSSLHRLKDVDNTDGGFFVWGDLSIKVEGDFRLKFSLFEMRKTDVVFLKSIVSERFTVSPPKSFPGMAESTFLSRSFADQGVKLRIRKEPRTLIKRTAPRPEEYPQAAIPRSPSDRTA

[6] = target: VelB (Aspergillus nidulans, UniProt C8VTS4 1-369); assay: as above; conditions: protein: recombinant; tags: His6 (C-terminal); blunt
Sequence of VelB (C8VTS4 whole entry): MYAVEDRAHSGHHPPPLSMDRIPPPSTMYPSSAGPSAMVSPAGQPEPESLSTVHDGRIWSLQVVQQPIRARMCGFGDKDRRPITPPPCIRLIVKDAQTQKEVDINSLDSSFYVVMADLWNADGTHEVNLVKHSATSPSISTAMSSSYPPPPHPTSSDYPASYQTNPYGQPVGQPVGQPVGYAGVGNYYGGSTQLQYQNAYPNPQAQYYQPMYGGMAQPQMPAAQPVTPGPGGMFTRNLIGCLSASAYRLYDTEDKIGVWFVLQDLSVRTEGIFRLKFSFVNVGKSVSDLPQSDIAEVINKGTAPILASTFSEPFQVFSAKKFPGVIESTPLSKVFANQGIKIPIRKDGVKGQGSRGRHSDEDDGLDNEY

[7] = target: T3, VosA1-190 (VosA_cryst) (Aspergillus nidulans, UniProt Q5BBX1 1-190); assay: EMSA; weaker than VosA_N; EMSA: 10 mM HEPES/NaOH pH 7.4, 150 mM NaCl, ~53 pmol DNA in 10 ul, RT 15 min; DNA:protein molar ratios 1:0.3 to 1:9; 6% PAGE, 0.5% TBE, ethidium bromide; conditions: protein: recombinant; tags: Strep-tag (C-terminal); chain copies: 2; blunt
T3 sequence: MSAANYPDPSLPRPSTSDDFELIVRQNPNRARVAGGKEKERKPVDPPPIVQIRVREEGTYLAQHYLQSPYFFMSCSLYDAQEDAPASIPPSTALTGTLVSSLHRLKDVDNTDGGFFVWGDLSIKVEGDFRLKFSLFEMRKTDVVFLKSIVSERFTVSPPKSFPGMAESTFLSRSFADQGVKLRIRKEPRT

[8] = target: T4, VeA1-224 (Aspergillus nidulans, UniProt C8VTV4 1-224); assay: EMSA; binds as well as VosA1-190; EMSA: 10 mM HEPES/NaOH pH 7.4, 150 mM NaCl, ~53 pmol DNA in 10 ul, RT 15 min; DNA:protein molar ratios 1:0.3 to 1:9; 6% PAGE, 0.5% TBE, ethidium bromide; conditions: protein: recombinant; tags: Strep-tag (C-terminal); blunt
T4 sequence: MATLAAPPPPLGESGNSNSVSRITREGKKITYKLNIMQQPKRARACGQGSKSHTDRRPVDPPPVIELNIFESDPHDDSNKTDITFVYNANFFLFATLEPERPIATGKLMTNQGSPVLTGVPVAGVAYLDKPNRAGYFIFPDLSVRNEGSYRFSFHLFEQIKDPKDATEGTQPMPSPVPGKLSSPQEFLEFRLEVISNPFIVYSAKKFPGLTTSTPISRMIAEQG

- stoichiometry N [1]: 2
- stoichiometry N [2]: 2
Molecule: VosA_(1–190), minimal velvet domain of VosA encompassing residues 1–190 (domain or fragment)

- stoichiometry N [3]: 2
Molecule: VosA_(1–190) dead, quadruple mutant of VosA with the mutations K37A, K39A, R41A, and K42A (domain or fragment)

B1: brlA 35 bp probe (OHS301/302) (dsDNA)
DNA 1: ATTCGGCGACTAGGATCTTACTGGCCGCGGCCGAG
DNA 2: CTCGGCCGCGGCCAGTAAGATCCTAGTCGCCGAAT
- binding result [4]: binds
- binding result [5]: binds
- binding result [6]: no binding
- binding result [7]: binds
- binding result [8]: binds
